# Laboratory results published in paper PMC7954794, “Protein context shapes the specificity of SH3 domain-mediated interactions in vivo” (Nature Communications, 2021).
# B1: WT¦WT¦WT (protein, UniProt P32790 1-1244, looked up)
# Actin cytoskeleton-regulatory …: MTVFLGIYRAVYAYEPQTPEELAIQEDDLLYLLQKSDIDDWWTVKKRVIGSDSEEPVGLVPSTYIEEAPVLKKVRAIYDYEQVQNADEELTFHENDVFDVFDDKDADWLLVKSTVSNEFGFIPGNYVEPENGSTSKQEQAPAAAEAPAATPAAAPASAAVLPTNFLPPPQHNDRARMMQSKEDQAPDEDEEGPPPAMPARPTATTETTDATAAAVRSRTRLSYSDNDNDDEEDDYYYNSNSNNVGNHEYNTEYHSWNVTEIEGRKKKKAKLSIGNNKINFIPQKGTPHEWSIDKLVSYDNEKKHMFLEFVDPYRSLELHTGNTTTCEEIMNIIGEYKGASRDPGLREVEMASKSKKRGIVQYDFMAESQDELTIKSGDKVYILDDKKSKDWWMCQLVDSGKSGLVPAQFIEPVRDKKHTESTASGIIKSIKKNFTKSPSRSRSRSRSKSNANASWKDDELQNDVVGSAAGKRSRKSSLSSHKKNSSATKDFPNPKKSRLWVDRSGTFKVDAEFIGCAKGKIHLHKANGVKIAVAADKLSNEDLAYVEKITGFSLEKFKANDGSSSRGTDSRDSERERRRRLKEQEEKERDRRLKERELYELKKARELLDEERSRLQEKELPPIKPPRPTSTTSVPNTTSVPPAESSNNNNSSNKYDWFEFFLNCGVDVSNCQRYTINFDREQLTEDMMPDINNSMLRTLGLREGDIVRVMKHLDKKFGRENIASIPTNATGNMFSQPDGSLNVATSPETSLPQQLLPQTTSPAQTAPSTSAETDDAWTVKPASKSESNLLSKKSEFTGSMQDLLDLQPLEPKKAAASTPEPNLKDLEPVKTGGTTVPAAPVSSAPVSSAPAPLDPFKTGGNNILPLSTGFVMMPMITGGDMLPMQRTGGFVVPQTTFGMQSQVTGGILPVQKTGNGLIPISNTGGAMMPQTTFGAAATVLPLQKTGGGLIPIATTGGAQFPQTSFNVQGQQQLPTGSILPVQKTANGLISANTGVSMPTVQRTGGTMIPQTSFGVSQQLTGGAMMTQPQNTGSAMMPQTSFNAVPQITGGAMMPQTSFNALPQVTGGAMMPLQRTGGALNTFNTGGAMIPQTSFSSQAQNTGGFRPQSQFGLTLQKTGGIAPLNQNQFTGGAMNTLSTGGVLQQQQPQTMNTFNTGGVMQELQMMTTFNTGGAMQQPQMMNTFNTDGIMQQPQMMNTFNTGGAMQQPQQQALQNQPTGFGFGNGPQQSRQANIFNATASNPFGF
# System: growth of yeast strains under 51 stress conditions
# Experiment: Growth assays in 51 stress conditions (Fig. 1E-F, S2D, S5B)
# Type: cell-based, Saccharomyces cerevisiae
# Set-up: Sla1 strains growth distance: scale not given here
# Details: 51 stress conditions, Fig S5B
# Method in brief: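 Colony sizes at 74 h on 51 stress media (37 °C) were log2 transformed, corrected for plate effects, and averaged across two plates as per-plate medians (growth score). Strains arrayed in 12 replicates with WT border, grown first on YPD for two days at 30 °C.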
molecule,measurement,setting,value
B1,Sla1 strains growth distance,distance to ABP1¦WT¦WT,32.7633
same,Sla1 strains growth distance,"distance to ABP1¦WT¦WT, listed as WT¦WT¦WT*",32.7344
same,Sla1 strains growth distance,distance to D¦D¦D,13.1994
same,Sla1 strains growth distance,"distance to D¦D¦D, listed as WT¦WT¦WT*",13.2336
same,Sla1 strains growth distance,distance to D¦WT¦D,4.481
same,Sla1 strains growth distance,"distance to D¦WT¦D, listed as WT¦WT¦WT*",4.3276
same,Sla1 strains growth distance,distance to D¦WT¦SH3-1,9.537
same,Sla1 strains growth distance,"distance to D¦WT¦SH3-1, listed as WT¦WT¦WT*",9.613
same,Sla1 strains growth distance,distance to D¦WT¦SH3-2,5.1186
same,Sla1 strains growth distance,"distance to D¦WT¦SH3-2, listed as WT¦WT¦WT*",4.955
same,Sla1 strains growth distance,distance to D¦WT¦WT,4.59
same,Sla1 strains growth distance,"distance to D¦WT¦WT, listed as WT¦WT¦WT*",4.434
same,Sla1 strains growth distance,distance to SH3-2¦SH3-1¦WT,7.002
same,Sla1 strains growth distance,"distance to SH3-2¦SH3-1¦WT, listed as WT¦WT¦WT*",6.862
same,Sla1 strains growth distance,distance to SH3-2¦WT¦D,9.252
same,Sla1 strains growth distance,"distance to SH3-2¦WT¦D, listed as WT¦WT¦WT*",9.12
same,Sla1 strains growth distance,distance to SH3-2¦WT¦WT,2.328
same,Sla1 strains growth distance,"distance to SH3-2¦WT¦WT, listed as WT¦WT¦WT*",2.435
same,Sla1 strains growth distance,distance to SH3-3¦SH3-1¦D,3.781
same,Sla1 strains growth distance,"distance to SH3-3¦SH3-1¦D, listed as WT¦WT¦WT*",3.648
same,Sla1 strains growth distance,distance to SH3-3¦SH3-1¦SH3-2,4.4511
same,Sla1 strains growth distance,"distance to SH3-3¦SH3-1¦SH3-2, listed as WT¦WT¦WT*",4.2977
same,Sla1 strains growth distance,distance to SH3-3¦WT¦D,11.8089
same,Sla1 strains growth distance,"distance to SH3-3¦WT¦D, listed as WT¦WT¦WT*",11.8591
same,Sla1 strains growth distance,distance to SH3-3¦WT¦SH3-1,11.5081
same,Sla1 strains growth distance,"distance to SH3-3¦WT¦SH3-1, listed as WT¦WT¦WT*",11.5693
same,Sla1 strains growth distance,distance to SH3-3¦WT¦WT,11.7278
same,Sla1 strains growth distance,"distance to SH3-3¦WT¦WT, listed as WT¦WT¦WT*",11.7806
same,Sla1 strains growth distance,distance to WT*¦WT¦WT,0.6236
same,Sla1 strains growth distance,"distance to WT*¦WT¦WT, listed as WT¦WT¦WT*",0.5854
same,Sla1 strains growth distance,distance to WT¦ABP1¦WT,11.3779
same,Sla1 strains growth distance,"distance to WT¦ABP1¦WT, listed as WT¦WT¦WT*",11.4192
same,Sla1 strains growth distance,distance to WT¦D¦D,4.458
same,Sla1 strains growth distance,"distance to WT¦D¦D, listed as WT¦WT¦WT*",4.315
same,Sla1 strains growth distance,distance to WT¦D¦SH3-2,5.097
same,Sla1 strains growth distance,"distance to WT¦D¦SH3-2, listed as WT¦WT¦WT*",4.943
same,Sla1 strains growth distance,distance to WT¦D¦WT,5.311
same,Sla1 strains growth distance,"distance to WT¦D¦WT, listed as WT¦WT¦WT*",5.149
same,Sla1 strains growth distance,distance to WT¦SH3-1¦D,0.4704
same,Sla1 strains growth distance,"distance to WT¦SH3-1¦D, listed as WT¦WT¦WT*",0.4379
same,Sla1 strains growth distance,distance to WT¦SH3-1¦WT,0.4878
same,Sla1 strains growth distance,"distance to WT¦SH3-1¦WT, listed as WT¦WT¦WT*",0.5418
same,Sla1 strains growth distance,distance to WT¦SH3-3¦D,5.1001
same,Sla1 strains growth distance,"distance to WT¦SH3-3¦D, listed as WT¦WT¦WT*",4.947
same,Sla1 strains growth distance,distance to WT¦SH3-3¦SH3-2,5.331
same,Sla1 strains growth distance,"distance to WT¦SH3-3¦SH3-2, listed as WT¦WT¦WT*",5.179
same,Sla1 strains growth distance,distance to WT¦SH3-3¦WT,4.703
same,Sla1 strains growth distance,"distance to WT¦SH3-3¦WT, listed as WT¦WT¦WT*",4.556
same,Sla1 strains growth distance,distance to WT¦WT*¦WT,0.917
same,Sla1 strains growth distance,"distance to WT¦WT*¦WT, listed as WT¦WT¦WT*",0.7508
same,Sla1 strains growth distance,distance to WT¦WT¦ABP1,1.932
same,Sla1 strains growth distance,"distance to WT¦WT¦ABP1, listed as WT¦WT¦WT*",1.926
same,Sla1 strains growth distance,distance to WT¦WT¦D,0.5681
same,Sla1 strains growth distance,"distance to WT¦WT¦D, listed as WT¦WT¦WT*",0.4359
same,Sla1 strains growth distance,distance to WT¦WT¦SH3-1,0.5772
same,Sla1 strains growth distance,"distance to WT¦WT¦SH3-1, listed as WT¦WT¦WT*",0.4107
same,Sla1 strains growth distance,distance to WT¦WT¦SH3-2,0.55
same,Sla1 strains growth distance,"distance to WT¦WT¦SH3-2, listed as WT¦WT¦WT*",0.3776
same,Sla1 strains growth distance,distance to WT¦WT¦WT*,0.496
same,Sla1 strains growth distance,"distance to WT¦WT¦WT*, listed as WT¦WT¦WT*",0
same,Sla1 strains growth distance,distance to WT¦WT¦WT,0
same,Sla1 strains growth distance,"distance to WT¦WT¦WT, listed as WT¦WT¦WT*",0.496
